The source of these data is US20220054706A1 (KING ABDULLAH UNIVERSITY OF SCIENCE AND TECHNOLOGY, published 2022).

This data set deals with the molecule itself. In words: 2D NMR (NOESY/TOCSY) of the self-assembling peptide in 90% H2O-10% D2O. On the procedure: 2D NMR of peptide solution was carried out to study the spatial structure during the assembly process. These NMR spectra were recorded on a Bruker Avance III 600 MHz equipped with a 5 mm Z-gradient SmartProbe BB(F)-H-D (BrukerBioSpin™, Rheinstetten, Germany). The samples were prepared from 10 mg of peptide in a mixture of 900 μL of 1 mM 2,2-Dimethyl-2-silapentane-5-sulfonate (DSS) and 100 μL of D₂O. ¹H-NMR was recorded by collecting 32 scans using excitation sculping with gradients pulse program (zgesgp) for water suppression.¹⁰⁹ COSY and TOCSY were then conducted to see the correlation between hydrogens that were coupled to each other. COSY was performed using a time domain of 4096 (F2)×512 (F1), 16 number of scans, a pulse program of cosydfgpph19, and 3-9-19 pulse sequence for water suppression.¹¹⁰⁻¹¹² For TOCSY, the parameters with time domain of 8192 (F2)×512 (F1), 16 number of scans, a pulse program of dipsi2gpph19, and 3-9-19 pulse sequence for water suppression were set. Finally, the NOESY acquisition was carried out with a time-domain size of 2048 (F2)×512 (F1), 32 scan numbers, a pulse program of noesyesgpph19, a mixing time of 400 ms, and water suppression using 3-9-19 pulse sequence. Broker Topspin 3.5pI7 software was used in all NMR experiments for both data collection and spectral analyses.

B1: Ac-Ile-Val-Phe-Lys-NH2 (IVFK) (peptide)
peptide: Ac-IVFK-NH2
notes: Synthetic self-assembling tetrapeptide; In the NMR experiment it stood at 10 mg in 900 uL of 1 mM DSS plus 100 uL D2O; also called aromatic IVFK
In the case of B1, the binding result was “binds”.
